{
  "source": "paper PMC5969521",
  "about": "“Actin-related proteins regulate the RSC chromatin remodeler by weakening intramolecular interactions of the Sth1 ATPase” (Communications Biology, 2018)",
  "molecules": {"B1": {"name": "fluorescein DNA duplex (dsDNA)", "DNA 1": "TCCATGTCCATGGATACGTGG", "DNA 2": "TCCACGTATCCATGGACATGGA"}},
  "key": {"[1]": {"biological_target": "T1, Rtt102;Arp7;Arp9;Sth1(301-1097) (budding yeast;budding yeast;budding …, UniProt P53330;Q12406;Q05123;P32597 1-157;1-477;1-467;301-1097, |||)", "test": "EMSA", "settings": "apparent Kd, Anisotropy: 20 mM HEPES pH 7.5, 50 mM NaCl, 2.5 mM MgCl2, 5% glycerol, 1 mM DTT, 0.1 mg/mL BSA, 1 mM AMPPNP or ADP, 50 nM DNA, 20 C, EMSA: 20 mM HEPES pH 7.5 …"}, "Sth1(301-1097) [2]": {"biological_target": "T2, Sth1(301-1097) (budding yeast, UniProt P32597 301-1097)", "T2 sequence (P32597 301-1097)": "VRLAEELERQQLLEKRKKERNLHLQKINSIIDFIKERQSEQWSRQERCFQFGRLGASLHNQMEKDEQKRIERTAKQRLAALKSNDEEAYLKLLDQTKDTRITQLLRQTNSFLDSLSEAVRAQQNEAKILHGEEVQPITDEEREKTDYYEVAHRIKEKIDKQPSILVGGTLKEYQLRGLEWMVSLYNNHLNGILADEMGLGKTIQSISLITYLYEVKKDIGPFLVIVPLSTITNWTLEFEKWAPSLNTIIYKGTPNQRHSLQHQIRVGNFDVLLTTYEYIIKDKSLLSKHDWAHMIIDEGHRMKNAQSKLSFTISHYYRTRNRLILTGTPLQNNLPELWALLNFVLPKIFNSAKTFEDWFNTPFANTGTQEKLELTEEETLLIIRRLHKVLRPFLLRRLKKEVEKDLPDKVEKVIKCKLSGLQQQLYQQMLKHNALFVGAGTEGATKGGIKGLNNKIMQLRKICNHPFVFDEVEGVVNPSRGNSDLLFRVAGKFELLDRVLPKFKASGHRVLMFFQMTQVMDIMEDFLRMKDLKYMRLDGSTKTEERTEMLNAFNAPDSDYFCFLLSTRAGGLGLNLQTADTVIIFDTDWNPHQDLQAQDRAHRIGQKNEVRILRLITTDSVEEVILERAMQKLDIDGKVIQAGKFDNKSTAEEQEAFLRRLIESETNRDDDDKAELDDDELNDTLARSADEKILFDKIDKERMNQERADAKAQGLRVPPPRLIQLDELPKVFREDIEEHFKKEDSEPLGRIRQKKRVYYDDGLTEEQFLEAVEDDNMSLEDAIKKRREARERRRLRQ", "test": "EMSA", "settings": "apparent Kd, Anisotropy: 20 mM HEPES pH 7.5, 50 mM NaCl, 2.5 mM MgCl2, 5% glycerol, 1 mM DTT, 0.1 mg/mL BSA, 1 mM AMPPNP or ADP, 50 nM DNA, 20 C, EMSA: 20 mM HEPES pH 7.5 …"}, "[3]": {"biological_target": "T3, Rtt102-Arp7/9-Sth1_301–1097 (Saccharomyces cerevisiae, UniProt P32597)", "T3 construct": "gene STH1; quaternary complex; Sth1 residues 301-1097 (HSA, pHSA, ATPase domains), Ni-NTA purified; with Actin-related protein 7; Actin-like protein ARP9; Regulator of Ty1 transposition protein 102", "T3 sequence (P32597 301-1097, one chain of several)": "as the sequence (P32597 301-1097) above", "test": "phosphate release (MESG/purine nucleoside phosphorylase, […] nm)", "type": "biochemical", "settings": "1 mM ATP, plasmid DNA, 2.5 mM MgCl2, pH 7.0, 22 °C; hydrolysis by the Sth1 subunit"}, "Rtt102-Arp7/9": {"biological_target": "T4, Rtt102-Arp7/9 (Saccharomyces cerevisiae, UniProt Q12406)", "T4 construct": "heterotrimer reconstituted from Rtt102 and Arp7/9 (2:1 mix, gel filtration); Rtt102 157 aa; with Actin-like protein ARP9; Regulator of Ty1 transposition protein 102", "T4 sequence (Q12406 1-477)": "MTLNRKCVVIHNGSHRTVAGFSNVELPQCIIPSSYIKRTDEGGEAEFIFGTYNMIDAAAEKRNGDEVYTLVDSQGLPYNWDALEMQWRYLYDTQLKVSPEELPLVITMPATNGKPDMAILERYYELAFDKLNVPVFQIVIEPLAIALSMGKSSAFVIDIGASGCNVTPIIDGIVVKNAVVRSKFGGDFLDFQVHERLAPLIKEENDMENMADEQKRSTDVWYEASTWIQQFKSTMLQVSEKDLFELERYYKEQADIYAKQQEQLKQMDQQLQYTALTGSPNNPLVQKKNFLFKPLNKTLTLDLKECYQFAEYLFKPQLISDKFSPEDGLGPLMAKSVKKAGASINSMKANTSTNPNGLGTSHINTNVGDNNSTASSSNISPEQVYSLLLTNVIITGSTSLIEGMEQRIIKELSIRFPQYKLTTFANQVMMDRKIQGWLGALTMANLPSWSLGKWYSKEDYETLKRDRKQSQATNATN", "T4 sequence (Q05123 1-467 partner)": "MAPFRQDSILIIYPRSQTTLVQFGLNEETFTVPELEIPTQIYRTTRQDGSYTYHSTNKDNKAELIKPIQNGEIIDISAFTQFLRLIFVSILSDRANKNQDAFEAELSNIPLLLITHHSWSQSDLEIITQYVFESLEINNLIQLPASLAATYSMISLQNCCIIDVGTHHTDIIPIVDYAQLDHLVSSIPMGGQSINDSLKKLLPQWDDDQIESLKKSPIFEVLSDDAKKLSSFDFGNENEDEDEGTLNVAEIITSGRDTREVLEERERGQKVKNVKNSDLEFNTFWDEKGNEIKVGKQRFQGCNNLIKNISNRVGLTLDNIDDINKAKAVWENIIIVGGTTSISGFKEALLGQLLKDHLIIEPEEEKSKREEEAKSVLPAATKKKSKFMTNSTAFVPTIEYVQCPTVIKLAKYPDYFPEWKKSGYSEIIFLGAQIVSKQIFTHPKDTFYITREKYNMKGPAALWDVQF", "T4 sequence (P53330 1-157 partner)": "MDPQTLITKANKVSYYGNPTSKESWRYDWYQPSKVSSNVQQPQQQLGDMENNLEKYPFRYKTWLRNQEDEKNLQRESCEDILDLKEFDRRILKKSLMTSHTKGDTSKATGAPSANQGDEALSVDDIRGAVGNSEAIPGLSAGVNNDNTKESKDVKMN", "test": "X-ray crystallography ([…] Å)", "type": "binding", "settings": "pre-incubated with 1 mM ATP; ATP bound in nucleotide cleft of Arp7, not Arp9; no cation seen; not hydrolysed"}, "[4]": {"biological_target": "nucleosome (Xenopus laevis histone octamer on 601 nucleosomal DNA) (Xenopus laevis)", "test": "native gel or EMSA; native gel shift, 1 mM ADP; nucleosomes held constant, Sth1 constructs up to 10 μM; 20 mM HEPES pH 7.5, 50 mM NaCl, 5% glycerol, 1 mM DTT, 0.1 mg/mL BSA, 1 mM MgCl2; 30 min room temperature, gel at 4 °C; apparent KD from a single-site hyperbolic fit"}, "[5]": {"biological_target": "nucleosome (Xenopus laevis histone octamer on 601 nucleosomal DNA) (Xenopus laevis)", "test": "native gel or EMSA; native gel shift, 1 mM AMPPNP; nucleosomes held constant, Sth1 constructs up to 10 μM; 20 mM HEPES pH 7.5, 50 mM NaCl, 5% glycerol, 1 mM DTT, 0.1 mg/mL BSA, 1 mM MgCl2; 30 min room temperature, gel at 4 °C; apparent KD from a single-site hyperbolic fit"}, "[6]": {"biological_target": "Sth1(365-1097) P1swap (budding yeast; Rad54 segment from S. solfataricus) (UniProt P32597)", "sequence (P32597 whole entry)": "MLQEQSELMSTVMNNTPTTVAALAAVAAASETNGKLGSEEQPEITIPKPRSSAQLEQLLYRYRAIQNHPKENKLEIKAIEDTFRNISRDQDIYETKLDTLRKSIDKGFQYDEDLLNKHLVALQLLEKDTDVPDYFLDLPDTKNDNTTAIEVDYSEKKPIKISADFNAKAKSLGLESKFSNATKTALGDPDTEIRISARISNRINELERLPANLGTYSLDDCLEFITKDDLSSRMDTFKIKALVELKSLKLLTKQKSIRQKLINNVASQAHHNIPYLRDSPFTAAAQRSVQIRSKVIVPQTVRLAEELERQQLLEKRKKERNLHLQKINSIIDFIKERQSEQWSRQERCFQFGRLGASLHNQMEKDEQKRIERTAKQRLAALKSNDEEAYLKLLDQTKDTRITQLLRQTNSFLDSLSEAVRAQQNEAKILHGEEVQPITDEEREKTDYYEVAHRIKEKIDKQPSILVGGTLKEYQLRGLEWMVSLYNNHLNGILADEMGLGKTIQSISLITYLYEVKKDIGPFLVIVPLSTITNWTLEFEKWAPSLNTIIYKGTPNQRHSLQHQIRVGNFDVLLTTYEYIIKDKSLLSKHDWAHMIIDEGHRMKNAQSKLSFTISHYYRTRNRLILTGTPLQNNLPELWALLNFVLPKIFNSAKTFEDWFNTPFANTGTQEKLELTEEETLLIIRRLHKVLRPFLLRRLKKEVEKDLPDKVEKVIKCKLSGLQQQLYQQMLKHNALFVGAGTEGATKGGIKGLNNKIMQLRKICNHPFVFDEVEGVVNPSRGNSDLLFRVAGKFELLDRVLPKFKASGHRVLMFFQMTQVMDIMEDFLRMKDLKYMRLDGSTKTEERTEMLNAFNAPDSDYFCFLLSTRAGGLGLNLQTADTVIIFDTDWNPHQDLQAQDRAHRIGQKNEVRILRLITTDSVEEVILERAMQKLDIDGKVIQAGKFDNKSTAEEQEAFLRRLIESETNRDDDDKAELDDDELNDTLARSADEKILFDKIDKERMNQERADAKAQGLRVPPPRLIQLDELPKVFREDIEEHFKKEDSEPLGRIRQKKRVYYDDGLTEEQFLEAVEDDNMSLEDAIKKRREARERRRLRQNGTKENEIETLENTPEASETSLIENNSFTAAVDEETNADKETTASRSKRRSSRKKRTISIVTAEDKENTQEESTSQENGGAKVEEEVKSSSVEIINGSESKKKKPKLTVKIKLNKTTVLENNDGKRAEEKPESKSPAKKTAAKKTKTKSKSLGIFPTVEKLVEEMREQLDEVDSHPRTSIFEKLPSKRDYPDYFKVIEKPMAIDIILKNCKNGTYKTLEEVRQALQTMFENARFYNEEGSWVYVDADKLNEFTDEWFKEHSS", "test": "fluorescence anisotropy", "settings": "nucleotide state not visible in material; Anisotropy: 20 mM HEPES pH 7.5, 50 mM NaCl, 2.5 mM MgCl2, 5% glycerol, 1 mM DTT, 0.1 mg/mL BSA, 1 mM AMPPNP or ADP, 50 nM DNA, 20 C; EMSA: 20 mM HEPES pH 7.5 …"}, "[7]": {"biological_target": "Rtt102-Arp7/9-bound His-HSA–pHSA fragment (budding yeast) (UniProt P32597)", "test": "pull-down; TEV cleavage and co-purification assay: purified Sth1 constructs at 6 μM (±Arp7/9 and Rtt102) cut with TEV protease overnight, His-tagged N-terminal fragment held on Ni-NTA resin; 20 mM HEPES pH 7.5, 500 mM NaCl, 5% glycerol, 25 mM imidazole, 1 mM MgCl2, 0.1 mM AMPPNP; eluted with 250 mM imidazole; SDS-PAGE, Coomassie"}, "Arp7;Arp9;Sth1(301-1097)": {"biological_target": "Arp7;Arp9;Sth1(301-1097) (budding yeast;budding yeast;budding …, UniProt Q12406;Q05123;P32597 1-477;1-467;301-1097, ||)", "sequence (P32597 301-1097, chain 3 of 3, one chain of several)": "as the sequence (P32597 301-1097) above", "test": "fluorescence anisotropy; 1 mM AMPPNP; Anisotropy: 20 mM HEPES pH 7.5, 50 mM NaCl, 2.5 mM MgCl2, 5% glycerol, 1 mM DTT, 0.1 mg/mL BSA, 1 mM AMPPNP or ADP, 50 nM DNA, 20 C; EMSA: 20 mM HEPES pH 7.5, 50 mM NaCl, 1 mM MgCl2, 5% glycerol, 1 mM DTT, 0.1 mg/mL BSA, 1 mM ADP or AMPPNP, room temperature", "settings": "protein: recombinant;recombinant;recombinant; copies: 1;1;1; label: 5'-fluorescein; strands 21 and 22 nt: 21 bp with 1 nt 5' overhang (T) on strand 2"}, "[8]": {"biological_target": "T1, Rtt102;Arp7;Arp9;Sth1(301-1097)", "test": "fluorescence anisotropy; 1 mM AMPPNP; Anisotropy: 20 mM HEPES pH 7.5, 50 mM NaCl, 2.5 mM MgCl2, 5% glycerol, 1 mM DTT, 0.1 mg/mL BSA, 1 mM AMPPNP or ADP, 50 nM DNA, 20 C; EMSA: 20 mM HEPES pH 7.5, 50 mM NaCl, 1 mM MgCl2, 5% glycerol, 1 mM DTT, 0.1 mg/mL BSA, 1 mM ADP or AMPPNP, room temperature", "settings": "protein: recombinant;recombinant;recombinant;recombinant; copies: 1;1;1;1; label: 5'-fluorescein; strands 21 and 22 nt: 21 bp with 1 nt 5' overhang (T) on strand 2"}, "Sth1(301-1097) [9]": {"biological_target": "T2, Sth1(301-1097)", "test": "fluorescence anisotropy; 1 mM AMPPNP; Anisotropy: 20 mM HEPES pH 7.5, 50 mM NaCl, 2.5 mM MgCl2, 5% glycerol, 1 mM DTT, 0.1 mg/mL BSA, 1 mM AMPPNP or ADP, 50 nM DNA, 20 C; EMSA: 20 mM HEPES pH 7.5, 50 mM NaCl, 1 mM MgCl2, 5% glycerol, 1 mM DTT, 0.1 mg/mL BSA, 1 mM ADP or AMPPNP, room temperature", "settings": "protein: recombinant; label: 5'-fluorescein; strands 21 and 22 nt: 21 bp with 1 nt 5' overhang (T) on strand 2"}, "Sth1(365-1097)": {"biological_target": "Sth1(365-1097) (budding yeast, UniProt P32597 365-1097)", "sequence (P32597 365-1097)": "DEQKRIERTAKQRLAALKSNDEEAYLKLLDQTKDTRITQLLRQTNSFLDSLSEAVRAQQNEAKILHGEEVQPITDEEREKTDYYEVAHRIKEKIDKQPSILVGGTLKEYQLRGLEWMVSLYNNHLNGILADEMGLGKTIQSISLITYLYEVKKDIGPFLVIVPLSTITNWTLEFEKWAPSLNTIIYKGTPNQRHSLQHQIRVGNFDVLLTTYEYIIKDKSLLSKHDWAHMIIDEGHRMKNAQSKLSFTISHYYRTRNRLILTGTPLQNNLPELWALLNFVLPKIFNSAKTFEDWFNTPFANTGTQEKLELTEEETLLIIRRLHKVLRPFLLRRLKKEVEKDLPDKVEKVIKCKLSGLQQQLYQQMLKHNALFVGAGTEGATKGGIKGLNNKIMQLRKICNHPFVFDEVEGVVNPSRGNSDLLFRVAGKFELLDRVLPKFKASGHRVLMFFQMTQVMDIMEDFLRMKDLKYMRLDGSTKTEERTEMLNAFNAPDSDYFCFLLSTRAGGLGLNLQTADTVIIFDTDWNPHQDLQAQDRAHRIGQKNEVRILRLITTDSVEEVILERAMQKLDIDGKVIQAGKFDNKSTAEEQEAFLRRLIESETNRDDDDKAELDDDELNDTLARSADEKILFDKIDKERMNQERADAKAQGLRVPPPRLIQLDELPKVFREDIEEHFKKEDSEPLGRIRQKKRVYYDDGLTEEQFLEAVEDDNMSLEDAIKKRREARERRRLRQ", "test": "fluorescence anisotropy; nucleotide state not visible in material; Anisotropy: 20 mM HEPES pH 7.5, 50 mM NaCl, 2.5 mM MgCl2, 5% glycerol, 1 mM DTT, 0.1 mg/mL BSA, 1 mM AMPPNP or ADP, 50 nM DNA, 20 C; EMSA: 20 mM HEPES pH 7.5, 50 mM NaCl, 1 mM MgCl2, 5% glycerol, 1 mM DTT, 0.1 mg/mL BSA, 1 mM ADP or AMPPNP, room temperature", "settings": "protein: recombinant; label: 5'-fluorescein; strands 21 and 22 nt: 21 bp with 1 nt 5' overhang (T) on strand 2"}},
  "data": [
    {"molecule": "601 nucleosome (Xenopus laevis core histone octamer)", "values": [
      {"measurement": "Kd", "setting": "[1]; 1 mM ADP", "result": 510, "unit": "nM"},
      {"measurement": "Kd", "setting": "[1]; 1 mM AMPPNP", "result": 460, "unit": "nM"},
      {"measurement": "Kd", "setting": "Sth1(301-1097) [2]; 1 mM ADP", "result": 670, "unit": "nM"},
      {"measurement": "Kd", "setting": "Sth1(301-1097) [2]; 1 mM AMPPNP", "result": 670, "unit": "nM"}
    ]},
    {"molecule": "Nc1ncnc2c1ncn2[C@@H]1O[C@H](COP(=O)(O)OP(=O)(O)OP(=O)(O)O)[C@@H](O)[C@H]1O", "note": "[ATP]", "values": [
      {"measurement": "phosphate release (MESG/purine nucleoside phosphorylase, 360 nm)", "setting": "[3]", "result": "displays strong DNA-dependent ATPase activity catalyzed by subunit Sth1"},
      {"measurement": "X-ray crystallography (3.25 Å)", "setting": "Rtt102-Arp7/9", "result": "showed the presence of ATP in the nucleotide-binding cleft of Arp7 but not Arp9"}
    ]},
    {"molecule": "Rtt102-Arp7/9-Sth1_(301–1097) quaternary complex (from UniProt P32597 301-1097; Q12406 1-477; Q05123 1-467; P53330 1-157)", "values": [
      {"measurement": "Kd", "setting": "[4]", "result": 510, "unit": "nM"},
      {"measurement": "Kd", "setting": "[5]", "result": 460, "unit": "nM"}
    ]},
    {"molecule": "Sth1_(301–1097) (from UniProt P32597 301-1097) (domain or fragment)", "values": [
      {"measurement": "Kd", "setting": "[4]", "result": 670, "unit": "nM"},
      {"measurement": "Kd", "setting": "[5]", "result": 670, "unit": "nM"}
    ]},
    {"molecule": "TCCATGTCCATGGATACGTGG / TCCACGTATCCATGGACATGGA [fluorescein DNA duplex]", "values": [
      {"measurement": "Kd", "setting": "[6]", "result": 520, "unit": "nM"}
    ]},
    {"molecule": "untagged ATPase fragment of TEV-cleaved Sth1_(301–1097) or Sth1_(365–1097) (from UniProt P32597 432-1097) (domain or fragment)", "values": [
      {"measurement": "percent of the ATPase lost after passage through the Ni-NTA column", "setting": "[7]", "result": 45, "unit": "%"}
    ]},
    {"molecule": "B1", "values": [
      {"measurement": "Kd", "setting": "Arp7;Arp9;Sth1(301-1097)", "result": 3000, "unit": "nM"},
      {"measurement": "Kd", "setting": "[8]", "result": 4200, "unit": "nM"},
      {"measurement": "Kd", "setting": "Sth1(301-1097) [9]", "result": 280, "unit": "nM"},
      {"measurement": "Kd", "setting": "Sth1(365-1097)", "result": "700 ± 10", "unit": "nM"}
    ]}
  ]
}
